Here are results for one molecule from patent WO2021032966A1 (dated 2021).

Test [1] has as its target T1, Zn2+-stabilised Ab40 oligomers (UniProt P05067 672-711).
T1 construct: domain: Ab1-40; Oligomers made by incubating Ab40 with ZnCl2 for 20 hours at 20 C
As to the kind of experiment: ITC, DesAb-O injected into Ab40 oligomers, 25 C.

The target of test [2] is T2, human Ab42 species in protein extracts of GMC101 C. elegans worms (human).
T2 construct: Target present in crude worm protein extracts coated on ELISA wells; also called NIAD-4 negative, toxic Ab42 species; Ab42 oligomers formed in vivo
T2 sequence (peptide, as listed by the source): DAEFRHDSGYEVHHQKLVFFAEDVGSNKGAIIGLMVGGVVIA
Description: indirect ELISA on C. elegans protein extracts, N2 worms as reference. A general note: An ELISA detects its analyte on a solid surface through an enzyme-linked reagent.

Test [3] deals with T1, Zn2+-stabilised Ab40 oligomers. As to the kind of experiment: ITC, fit of double subtracted integrated peaks.
Test [4] concerns the target T3, Ab42 species in hippocampus protein extracts of J20 mice (PDGF-APPSw,Ind) (human).
T3 construct: Target present in crude hippocampus extracts coated on ELISA wells; 6E10 detects total Ab in the same extracts; also called Ab42 oligomers formed in vivo in a mouse model of AD
As to the kind of experiment: indirect ELISA on hippocampus protein extracts of J20 mice, normalised to wild-type mice.

T1 sequence (P05067 671-711 limits assumed): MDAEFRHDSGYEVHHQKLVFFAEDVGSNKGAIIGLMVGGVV
T3 sequence (peptide, as listed by the source): as the sequence (peptide, as listed by the source) above

B1: DesAb-O (VHH)
VHH: EVQLVESGGGLVQPGGSLRLSCAASGFNIKDTYIGWVRRAPGKGEEWVASIYPTNGYTRYADSVKGRFTISADTSKNTAYLQMNSLRAEDTAVYYCAAGSESAFGRAEEEAAAWGQGTLVTVSS
notes: Rationally designed single-domain antibody (VH domain), expressed in E. coli, purified by Ni2+ chromatography and detected with an anti-6X His tag antibody; also called DesAb-0; Des-Ab-0
Regarding B1, the figures for the Kd in test [1] and in test [3] were ~500 nM and 440 nM, respectively. The binding result in test [2] and in test [4] was “binds” each time. In addition, in test [3], the “DH (ITC fit)” value was -12.7 kcal/mol.
